The values below come from US20200239541A1 (XYPHOS BIOSCIENCES, published 2020).

The target in assay [1] is T1, Fc-NKG2D.wt (human).
T1 construct: also called NKG2D.wt Y|Y; natural Fc-NKG2D
The assay can be described thus: ELISA, Fc-NKG2D coated, MicAbody titrated; quantitative ELISA of Table 12, fitted EC50 on Fc-NKG2D.wt (20092-fold weaker than on AF). (In general: An ELISA detects its analyte on a solid surface through an enzyme-linked reagent.)

In assay [2] the target is T1, Fc-NKG2D.wt. The assay can be described thus: ELISA, Fc-NKG2D coated, MicAbody titrated; quantitative ELISA of Table 12, fitted EC50 on Fc-NKG2D.wt (4414-fold weaker than on AF).
The target of assay [3] is T1, Fc-NKG2D.wt. The assay can be described thus: ELISA, Fc-NKG2D coated, MicAbody titrated; quantitative ELISA of Table 12, fitted EC50 on Fc-NKG2D.wt (10802-fold weaker than on AF).
For assay [4], the target named is T1, Fc-NKG2D.wt. The assay can be described thus: ELISA (called Kd in the text). The protocol: (§1) The binding affinities of α1-α2 variants to the extracellular domains of natural (wild-type) NKG2D and non-natural eNKG2D proteins were analyzed using a plate-based ELISA method. Each of the SEC fractionated natural Fc-NKG2D and non-natural Fc-eNKG2D fusions were coated overnight at 4° C. onto separate wells of Nunc Maxisorp 96 well plates (Thermo Fisher Scientific, Waltham, Mass.) using a coating concentration of 1 μg/mL in phosphate-buffered saline (PBS). The plates were washed three times in PBS/0.05% Tween-20 (PBS-T) at 20-22° C., and blocked with 0.5% bovine serum albumin in PBS (PBS-B) for 2 hours at 20-22° C. MicAbodies were titrated against the plate-bound natural or non-natural Fc-NKG2D fusions for 60 minutes at 20-22° C. in PBS/0.5% bovine serum albumin (BSA)/0.05% Tween-20 (PBS-BT), washed 3 times with PBS-T at 20-22° C., and the bound bispecific proteins detected using an HRP-conjugated anti-human kappa in PBS-BT (Abcam, Cambridge Mass.) and developed with 1-Step™ Ultra TMB ELISA Substrate Solution (Thermo Fisher Scientific, Waltham, Mass.).

Assay [5] addresses T1, Fc-NKG2D.wt. The assay can be described thus: ELISA, Fc-NKG2D coated, MicAbody titrated from 300 nM. How it is done: as §1
In assay [6] the target is T2, Fc-eNKG2D2 (Y152S) (human).
T2 construct: also called eNKG2D2 S|Y; not shown: human IgG1 Fc (without Fab domains)
T2 sequence (chain, as listed by the source Y152S Y152S): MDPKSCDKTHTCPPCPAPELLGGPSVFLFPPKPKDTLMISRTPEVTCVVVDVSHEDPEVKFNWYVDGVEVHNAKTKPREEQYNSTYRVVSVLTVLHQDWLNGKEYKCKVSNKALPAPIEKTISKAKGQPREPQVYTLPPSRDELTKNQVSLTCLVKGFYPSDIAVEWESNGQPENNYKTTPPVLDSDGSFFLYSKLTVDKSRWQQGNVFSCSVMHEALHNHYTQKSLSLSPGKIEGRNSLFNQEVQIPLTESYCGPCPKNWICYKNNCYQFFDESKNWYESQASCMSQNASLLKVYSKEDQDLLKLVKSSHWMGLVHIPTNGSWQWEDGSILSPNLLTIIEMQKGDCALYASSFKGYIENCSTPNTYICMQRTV
Described as above. How it is done:
as §1

The target of assay [7] is T3, Fc-eNKG2D3 (Y152T) (human).
T3 construct: also called eNKG2D3 T|Y
T3 sequence (chain, as listed by the source Y152T Y152T limits assumed): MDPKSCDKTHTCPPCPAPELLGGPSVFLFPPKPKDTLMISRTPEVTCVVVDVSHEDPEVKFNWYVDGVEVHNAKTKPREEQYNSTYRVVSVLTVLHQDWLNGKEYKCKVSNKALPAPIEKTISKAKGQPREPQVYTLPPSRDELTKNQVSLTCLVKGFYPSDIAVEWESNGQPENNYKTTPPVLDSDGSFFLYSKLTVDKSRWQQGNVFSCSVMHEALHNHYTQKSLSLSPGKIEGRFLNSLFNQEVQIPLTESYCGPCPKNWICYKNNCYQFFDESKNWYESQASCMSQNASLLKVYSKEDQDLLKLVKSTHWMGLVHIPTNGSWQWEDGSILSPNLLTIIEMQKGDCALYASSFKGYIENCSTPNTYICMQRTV
The description is as above. How it is done:
as §1

The target of assay [8] is T4, Fc-eNKG2D4 (Y152V) (human).
T4 construct: also called eNKG2D4 V|Y
T4 sequence (chain, as listed by the source Y152V Y152V limits assumed): as the sequence (chain, as listed by the source Y152T Y152T limits assumed) above, with T312V counted along it
Described as above. The protocol: as §1

Assay [9] addresses T5, Fc-eNKG2D14 (Y152L) (human).
T5 construct: also called eNKG2D14 L|Y
The description is as above. The protocol:
as §1

Assay [10] deals with T6, Fc-eNKG2D6 (Y152L/Y199F) (human).
T6 construct: also called eNKG2D6 L|F
T6 sequence (chain, as listed by the source Y152L Y199F Y152L Y199F limits assumed): as the sequence (chain, as listed by the source Y152T Y152T limits assumed) above, with T312L, Y359F counted along it
The assay can be described thus: ELISA, Fc-eNKG2D coated, MicAbody titrated from 300 nM. The protocol:
as §1

Assay [11] addresses T7, Fc-eNKG2D12 (Y152D/Y199D) (human).
T7 construct: also called eNKG2D12 D|D
The description is as above. The protocol:
as §1

Assay [12] has as its target T8, Fc-eNKG2D13 (Y152E/Y199E) (human).
T8 construct: also called eNKG2D13 E|E
The assay is described as above. How it is done:
as §1

For a further assay, the target named is T9, Fc-NKG2D.Y152A (human).
T9 construct: also called eNKG2D A|Y; Fc-NKG2D.YA
T9 sequence (chain, as listed by the source Y152A Y152A limits assumed): as the sequence (chain, as listed by the source Y152T Y152T limits assumed) above, with T312A counted along it
Put plainly: BLI (Octet), Fc-eNKG2D captured on AHC tips, 20 nM MicAbody. How it is done:
(§2) Additional biophysical analysis of eNKG2D variant binding to ligands was also performed with Bio-Layer Interferometry (BLI) using the FortéBio Octet system (all FortéBio LLC, Fremont, Calif.). For these experiments human NKG2D ligands MICA-Fc, MICB-Fc, ULBP1-Fc, ULBP2-Fc, ULBP3-Fc, and ULBP4-Fc were purchased from R&D Systems, Inc. (Minneapolis, Minn.). Ligands in the MicAbody format were captured on anti-human IgG Fc capture (AHC) biosensor tips. After a baselines were established, tips were exposed to a titration series of Fc-eNKG2D fusion proteins ranging from 300 nM to 0.41 nM and association/dissociation kinetics monitored with all steps performed in PBS-BT. Subsequently, Fc-eNKG2D fusion proteins were captured onto AHC tips and MicAbodies were titrated to characterize binding kinetics.
(§3) Binding analysis under the same conditions was then performed with Fc-eNKG2D fusion receptors as the capture agent, and the level of binding for each eNKG2D ranked as a percentage of the maximal binding response established by Fc-NKG2D.wt (Table 2).
A general note: BLI is a label-free optical method that tracks binding on a fibre tip over time.

For assay [13], the target named is T2, Fc-eNKG2D2 (Y152S). Described as above. How it is done:
as §2, §3

The target in assay [14] is T3, Fc-eNKG2D3 (Y152T). The assay is described as above. How it is done:
as §2, §3

The target in assay [15] is T4, Fc-eNKG2D4 (Y152V). The description is as above. How it is done: as §2, §3
The target of assay [16] is T5, Fc-eNKG2D14 (Y152L). The assay is described as above. The protocol: as §2, §3
A further assay concerns the target T10, Fc-eNKG2D1 (Y199F) (human).
T10 construct: also called eNKG2D1 Y|F; not shown: human IgG1 Fc (without Fab domains)
Described as above. The protocol: as §2, §3

Assay [17] addresses T11, Fc-eNKG2D15 (Y152F/Y199F) (human).
T11 construct: also called eNKG2D15 F|F
Put plainly: ELISA, Fc-NKG2D coated, MicAbody titrated from 300 nM; ELISA, Fc-eNKG2D15 as capture agent, MicAbody titrated from 300 nM. How it is done: as §1

Assay [18] deals with T6, Fc-eNKG2D6 (Y152L/Y199F). The assay can be described thus: ELISA, Fc-NKG2D coated, MicAbody titrated from 300 nM. The protocol: as §1
Assay [19] deals with T11, Fc-eNKG2D15 (Y152F/Y199F). The description is as above. The protocol: as §1
In the next assay the target is T12, Fc-eNKG2D5 (Y152A/Y199F) (human).
T12 construct: also called eNKG2D5 A|F; Fc-NKG2D.AF
T12 sequence (chain, as listed by the source Y152A Y199F Y152A Y199F limits assumed): as the sequence (chain, as listed by the source Y152T Y152T limits assumed) above, with T312A, Y359F counted along it
Put plainly: BLI (Octet), Fc-eNKG2D captured on AHC tips, 20 nM MicAbody. The protocol:
as §2, §3

In another assay the target is T13, Fc-eNKG2D7 (Y152S/Y199F) (human).
T13 construct: also called eNKG2D7 S|F
T13 sequence (chain, as listed by the source Y152S Y199F Y152S Y199F limits assumed): as the sequence (chain, as listed by the source Y152T Y152T limits assumed) above, with T312S, Y359F counted along it
The description is as above. How it is done:
as §2, §3

In the next assay the target is T14, Fc-eNKG2D8 (Y152T/Y199F) (human).
T14 construct: also called eNKG2D8 T|F
T14 sequence (chain, as listed by the source Y152T Y199F Y152T Y199F limits assumed): as the sequence (chain, as listed by the source Y152T Y152T limits assumed) above, with Y359F counted along it
Described as above. How it is done: as §2, §3

The next assay has as its target T15, Fc-eNKG2D9 (Y152V/Y199F) (human).
T15 construct: also called eNKG2D9 V|F
Described as above. The protocol:
as §2, §3

T5 sequence (chain, as listed by the source Y152L Y152L limits assumed): as the sequence (chain, as listed by the source Y152T Y152T limits assumed) above, with T312L counted along it
T1 sequence (chain, as listed by the source limits assumed): as the sequence (chain, as listed by the source Y152T Y152T limits assumed) above, with T312Y counted along it
T8 sequence (chain, as listed by the source Y152E Y199E Y152E Y199E limits assumed): as the sequence (chain, as listed by the source Y152T Y152T limits assumed) above, with T312E, Y359E counted along it
T10 sequence (chain, as listed by the source Y199F Y199F): as the sequence (chain, as listed by the source Y152S Y152S) above, with S310Y, Y357F counted along it
T7 sequence (chain, as listed by the source Y152D Y199D Y152D Y199D limits assumed): as the sequence (chain, as listed by the source Y152T Y152T limits assumed) above, with T312D, Y359D counted along it
T11 sequence (chain, as listed by the source Y152F Y199F Y152F Y199F limits assumed): as the sequence (chain, as listed by the source Y152T Y152T limits assumed) above, with T312F, Y359F counted along it
T15 sequence (chain, as listed by the source Y152V Y199F Y152V Y199F limits assumed): as the sequence (chain, as listed by the source Y152T Y152T limits assumed) above, with T312V, Y359F counted along it

B1: rituximab-MicAbody with ULBP2 variant AA (bispecific antibody, human IgG1, kappa)
heavy: not shown
light: QIVLSQSPAILSASPGEKVTMTCRASSSVSYIHWFQQKPGSSPKPWIYATSNLASGVPVRFSGSGSGTSYSLTISRVEAEDAATYYCQQWTSNPPTFGGGTKLEIKTVAAPSVFIFPPSDEQLKSGTASVVCLLNNFYPREAKVQWKVDNALQSGNSQESVTEQDSKDSTYSLSSTLTLSKADYEKHKVYACEVTHQGLSSPVTKSFNRGECAPTSSSGGGGSEPHSLSYDITVIPKFRPGPRWCAVQGQVDEKTFLHYDCGNKTVTPVSPLGKKLNVTTAWKAQNPVLREVVDILTEQLWDIQLENYTPKEPLTLQARMSCEQKAEGHSSGSWQFSFDGQIFLLFDSEKRMWTTVHPGARKMKEKWENDKVVATMFWSWSMGDCIGWLEDFLMGMDSTLEPS
notes: also called ULBP2.AA
B1 registered an EC50 in the assay with Fc-NKG2D.wt [1] of 655 nM.

B2: rituximab-MicAbody with ULBP2 variant C (bispecific antibody, human IgG1, kappa)
heavy: not shown
light: QIVLSQSPAILSASPGEKVTMTCRASSSVSYIHWFQQKPGSSPKPWIYATSNLASGVPVRFSGSGSGTSYSLTISRVEAEDAATYYCQQWTSNPPTFGGGTKLEIKTVAAPSVFIFPPSDEQLKSGTASVVCLLNNFYPREAKVQWKVDNALQSGNSQESVTEQDSKDSTYSLSSTLTLSKADYEKHKVYACEVTHQGLSSPVTKSFNRGECAPTSSSGGGGSEPHSLSYDITVIPKFRPGPRWCAVQGQVDEKTFLHYDCGNKTVTPVSPLGKKLNVTTAWKAQNPVLREVVDILTEQLWDIQLENYTPKEPLTLQARMSCEQKAEGHSSGSWQFSFDGQIFLLFDSEKRMWTTVHPGARKMKEKWENDKVVATILWQTSMGDCIGWLEDFLMGMDSTLEPS
notes: also called ULBP2.C
For B2, the EC50 with Fc-NKG2D.wt [2] was 130 nM.

B3: rituximab-MicAbody with ULBP2 variant AB (bispecific antibody, human IgG1, kappa)
heavy: not shown
light: QIVLSQSPAILSASPGEKVTMTCRASSSVSYIHWFQQKPGSSPKPWIYATSNLASGVPVRFSGSGSGTSYSLTISRVEAEDAATYYCQQWTSNPPTFGGGTKLEIKTVAAPSVFIFPPSDEQLKSGTASVVCLLNNFYPREAKVQWKVDNALQSGNSQESVTEQDSKDSTYSLSSTLTLSKADYEKHKVYACEVTHQGLSSPVTKSFNRGECAPTSSSGGGGSEPHSLSYDITVIPKFRPGPRWCAVQGQVDEKTFLHYDCGNKTVTPVSPLGKKLNVTTAWKAQNPVLREVVDILTEQLWDIQLENYTPKEPLTLQARMSCEQKAEGHSSGSWQFSFDGQIFLLFDSEKRMWTTVHPGARKMKEKWENDKVVATLMWQWSMGDCIGWLEDFLMGMDSTLEPS
notes: also called ULBP2.AB
B3 came in with a 50% effective concentration (EC50) in the assay with Fc-NKG2D.wt [3] of 389 nM.

B4: trastuzumab-MICwed MicAbody (bispecific antibody, human IgG1, kappa)
heavy: not shown
light: not shown
chain: EPHSLRYNLTVLSWDGSVQSGFLTEVHLDGQPFLRCDRQKCRAKPQGQWAEDVLGNKTWDRETRDLTGWGKDLRMTLAHIKDQKEGLHSLQEIRVCEIHEDNSTRSSQHFYYDGELFLSQNLETKEWTMPQSSRAQTLAMNVRNFLKEDAMETDTHYHAMHADCLQELRRYLKSGVVLRRTV
In the case of B4, the EC50 in the assay with Fc-NKG2D.wt [4] came out at 0.007 nM; in the assay with Fc-NKG2D.wt [5], 0.0067 nM; with Fc-eNKG2D2 (Y152S) [6] it was 4.16 nM; with Fc-eNKG2D3 (Y152T) [7] it was 4.33 nM; with Fc-eNKG2D4 (Y152V) [8] it was 4.84 nM; in the assay with Fc-eNKG2D14 (Y152L) [9], 9.39 nM. In addition, a half-maximal response in assay [17] (EC50) required 31.3 nM. In addition, the binding result (with Fc-eNKG2D6 (Y152L/Y199F) [10]; in assay [11]; in assay [12]) was “no binding (tested: 300 nM)” throughout. In addition, the “percent of the maximal binding response of Fc-NKG2D.wt” value (“percent” for short) with Fc-NKG2D.Y152A is 50%; with Fc-eNKG2D2 (Y152S) [13], 50%; with Fc-eNKG2D3 (Y152T) [14], 50%; with Fc-eNKG2D4 (Y152V) [15], 50%; with Fc-eNKG2D14 (Y152L) [16] it was 50%; in the assay with Fc-eNKG2D1 (Y199F) it was 100%.

B5: trastuzumab-MIC25 MicAbody (bispecific antibody, human IgG1, kappa)
heavy: not shown
light: not shown
chain: EPHSLRYNLTVLSWDGSVQSGFLTEVHLDGQPFLRCDRQKCRAKPQGQWAEDVLGNKTWDRETRDLTGWGKDLRMTLAHIKDQKEGLHSLQEIRVCEIHEDNSTRSSQHFYYDGELFLSQNLETLEWTMPQSSRAQTLAMNVRNFLKEDAMETDTHYHAMRADCLSELRRYLKSGVVLRRTV
Turning to B5, the EC50 with Fc-NKG2D.wt [4] is about 0.005 nM; with Fc-NKG2D.wt [5], about 0.0039 nM; in the assay with Fc-eNKG2D2 (Y152S) [6], 0.0056 nM; with Fc-eNKG2D3 (Y152T) [7], 0.0056 nM; in the assay with Fc-eNKG2D4 (Y152V) [8], about 0.0043 nM; with Fc-eNKG2D14 (Y152L) [9] it was 0.01 nM. Also, the figures for the EC50 (in the assay with Fc-eNKG2D6 (Y152L/Y199F) [18]; in assay [19]) were 0.37 nM and 0.046 nM, respectively. Besides, the binding result in [11] and in [12] was “no binding (tested: 300 nM)” in each case. Also, the “percent” value with Fc-NKG2D.Y152A, with Fc-eNKG2D2 (Y152S) [13], with Fc-eNKG2D3 (Y152T) [14], with Fc-eNKG2D4 (Y152V) [15], in the assay with Fc-eNKG2D14 (Y152L) [16] and with Fc-eNKG2D1 (Y199F) was 100% throughout. For the same molecule, the “percent” value with Fc-eNKG2D5 (Y152A/Y199F) was found to be 50%; in the assay with Fc-eNKG2D7 (Y152S/Y199F), 50%; with Fc-eNKG2D8 (Y152T/Y199F), 50%; with Fc-eNKG2D9 (Y152V/Y199F), 100%.

As a reminder, the EC50 is the concentration at which the effect is half-maximal. Low readings indicate an effect from little substance, high ones a need for much substance.
